Experimental data as given in US20220315554A1, “COMPOUNDS COMPRISING A […] LIGAND AND USE THEREOF” (priority 2019, published 2022).
pKi: −log10 of the molar value.

Legend:
mu (MOP) (h) (human) = target: mu (MOP) (h) (human (printed (h))) (UniProt P35372); experiment: radioligand displacement, reference compound of the panel
KV channel = experiment: as above

| Substance | pKi (mu (MOP) (h) (human)) | pKi (KV channel) |
| --- | --- | --- |
| DAMGO (peptide) | 9.43 |  |
| alpha-dendrotoxin (from UniProt P00980) (peptide) |  | 10.01 |
